Read-outs that look alike come from different tables or passages of the source. *1 amine or outer side, *2 acyl side, *3 side chain or, on linkers, in order; H or OH if unused. Where a SMILES comes first, the peptide text is derived from it. Side-chain parts run from the residue outwards. [ ]: non-standard residue; d: D form. The star is where a group is joined. HSG = histamine succinyl glycyl group, O=C(CCC(=O)NCC(=O)*)NCCc1c[nH]cn1; DOTA = O=C(O)CN1CCN(CC(=O)O)CCN(CC(=O)*)CCN(CC(=O)O)CC1; NH(2-(imidazol-4-yl)ethyl) = c1ncc(CCN*)[nH]1; Suc = O=C(CCC(=O)[*:2])[*:1]
What was measured:
[1] = Stability of Al^18F(IMP467) in human serum or PBS; format: in vitro ADME
Protocol: An aliquot of the HLB purified peptide (˜30 μL) was diluted with 200 μL human serum (previously frozen) and placed in the 37° C. HPLC sample chamber. Aliquots were removed at various time points and analyzed by HPLC.
Optimized conditions for ^18F-labeling of IMP467 were identified. These consisted of eluting ^18F^− with commercial sterile saline (pH 5-7), mixing with 20 nmol of AlCl3 and 40 nmol IMP467 in pH 4 acetate buffer in a total volume of 100 μL, heating to 102° C. for 15 min, and performing SPE separation. High-yield (85%) and high specific activity (115 GBq/μmol) were obtained with IMP467 in a single step, 30-min procedure after a simple solid-phase extraction (SPE) separation without the need for HPLC purification. Al^18F(IMP467) was stable in PBS or human serum, with 2% loss of ^18F after incubation in either medium for 6 h at 37° C.

[2] = target: somatostatin receptors on AR42J cells (rat); test: apparent IC50; competition with ^111In(DTPA-octreotide) on AR42J cells, 3 h at RT
[3] = Radioprotection of 800CW with radical scavengers; format: physicochemical; conditions: for radioprotection of 800CW: 20 MBq of ^68Ga, 0.5, 3 and 6 h exposure
Protocol: The radioprotective effect of three common hydroxyl radical scavengers, ethanol, gentisic acid (GA) and ascorbic acid (AA) was tested. […]

[4] = Stability of ^18F-labeled IMP272 in PBS (reverse phase HPLC); format: physicochemical; conditions: incubated at room temperature with PBS for ~1 hr
Protocol: ^18F-Labeling of IMP272—A 3 μL aliquot of the aluminum stock solution was placed in a REACTI-VIAL™ and mixed with 50 μL ^18F (as received) and 3 μL of the IMP272 solution. […] The remainder of the peptide solution was incubated at room temperature with 150 μL PBS for ˜1 hr and then examined by reverse phase HPLC.

[5] = tested on: nude BALB/c mice with s.c. LS174T tumors; test: PET/CT images, region of interest ratios; format: in vivo
Protocol: (§1) PET images were acquired with an Inveon animal PET/CT scanner (Siemens Preclinical Solutions, Knoxville, Tenn.). PET emission scans were acquired for 15 minutes, preceded by CT scans for anatomical reference (spatial resolution 113 μm, 80 kV, 500 μA, exposure time 300 msec).
(§2) Uptake in the tumor was evaluated quantitatively by drawing regions of interest (ROI), using a 50% threshold of maximum intensity. A region in the abdomen was used as background region.

[6] = PET/CT images, region of interest ratios; format: in vivo, mice; conditions: male, BALB/c nude, mouse, iv, total radioactivity, mice with LS174T tumor and inflamed muscle, ^68Ga(IMP288) after TF2
Protocol: as §1, §2

[7] = IRDye800CW irradiations (radiobleaching); format: physicochemical
Protocol: To assess the radiosensitivity of 800CW, 5 μg/mL aqueous solution of the dye in 0.1 M NaAc buffer pH 4.5 was prepared and mixed with increasing activities of ^68Ga, ^111In, and ^213Bi (1-20 MBq) for a 310 μL final volume. Radioactive solutions were incubated in 1.5 mL Eppendorf tubes at 4° C. in the dark, and 100 μL aliquots taken at 0.5, 6, and 24 h time points for fluorescence measurement. The effect of volume on 800CW's radiosensitivity was determined by incubating 150, 300, 550,800, or 1050 μL of 5 μg/mL buffered dye solution with 20 MBq of ^68Ga. All fluorescence readings were normalized to non-irradiated controls.

[8] = Effect of heating on fluorescence of 800CW; format: physicochemical; conditions: NaAc 0.1 M pH 4.5, 1 h at 95° C.
Protocol: To investigate the effect of heating on the fluorescence of 800CW, 5 μg/mL solutions of the dye in NaAc (0.1 M, pH 4.5) were placed in a heating block at 95° C. for 5, 15, 30, or 60 min. Following, samples were cooled down to room temperature, measured in the plate reader, and the fluorescence of each sample was normalized to a non-heated control.

[9] = Stability of ^18F-labeled IMP449 in human serum at 37° C.
Protocol: Three microliters of a 2 mM solution of Al in a pH 4 acetate buffer was mixed with 15 μL, 1.3 mCi of ^18F. […] […] […] Another aliquot was removed after 1 hr and analyzed by HPLC.

[10] = tested on: nude mice bearing LS174T human colonic xenografts; test: Biodistribution of ^18F-labeled agents with or without TF2 pretargeting; conditions: not pretargeted
From the text: Six-week-old NCr nu-m female nude mice were implanted s.c. with the human colonic cancer cell line, LS174T (ATCC, Manassas, Va.).
Tissues were weighed and counted together with a standard dilution prepared from each of the respective products. Due to the short physical half-life of ^18F, standards were interjected between each group of tissues from each animal. Uptake in the tissues is expressed as the counts per gram divided by the total injected activity to derive the percent-injected dose per gram (% ID/g).

CEA = target: T1, CEA (Homo sapiens, UniProt P06731); test: Immunoreactivity with excess CEA by SE-HPLC; format: binding; conditions: 0.74-GBq run
T1 sequence (P06731 35-676): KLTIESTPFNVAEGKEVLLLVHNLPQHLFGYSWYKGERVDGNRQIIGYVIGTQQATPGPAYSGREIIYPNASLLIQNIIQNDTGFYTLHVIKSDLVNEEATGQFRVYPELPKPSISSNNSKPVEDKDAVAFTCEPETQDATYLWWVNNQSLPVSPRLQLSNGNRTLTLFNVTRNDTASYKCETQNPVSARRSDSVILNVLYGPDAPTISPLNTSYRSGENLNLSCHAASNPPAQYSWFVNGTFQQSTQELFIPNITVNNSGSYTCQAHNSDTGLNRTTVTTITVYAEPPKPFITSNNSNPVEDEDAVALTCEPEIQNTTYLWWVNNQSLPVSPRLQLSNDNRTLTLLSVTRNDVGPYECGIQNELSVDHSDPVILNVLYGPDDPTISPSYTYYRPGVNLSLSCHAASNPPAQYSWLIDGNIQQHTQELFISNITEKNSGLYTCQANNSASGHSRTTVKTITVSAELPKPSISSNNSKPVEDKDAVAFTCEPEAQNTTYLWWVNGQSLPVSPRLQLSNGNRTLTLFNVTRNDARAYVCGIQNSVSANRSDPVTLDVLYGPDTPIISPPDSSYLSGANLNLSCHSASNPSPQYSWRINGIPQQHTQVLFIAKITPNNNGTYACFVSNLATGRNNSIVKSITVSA
Protocol: Immunoreactivity of the purified product was analyzed by adding an excess of CEA and separating on SE-HPLC, comparing to a profile of the product alone. The product was also analyzed by RP-HPLC to assess percent-unbound Al^18F(NOTA-MPAEM).

[11] = tested on: nude mice bearing Capan-1 human pancreatic cancer xenografts; test: Biodistribution of radiolabeled Fab′; conditions: 3 h after injection
Protocol: (§3) Nude mice were inoculated subcutaneously with CaPan-1 human pancreatic adenocarcinoma (ATCC Accession No. HTB-79, Manassas, Va.). When tumors were visible, the animals were injected intravenously with 100 μL of the radiolabeled Fab′. […] The animals were necropsied at 3 h post injection, tissues and tumors removed, weighed, and counted by gamma scintillation, together with standards prepared from the injected products. The data are expressed as percent injected dose per gram.

[12] = tested on: nude mice bearing Capan-1 human pancreatic cancer xenografts; conditions: mouse, in vivo
Protocol: as §3

Sequence of somatostatin receptors on AR42J cells (rat) (P30680 whole entry): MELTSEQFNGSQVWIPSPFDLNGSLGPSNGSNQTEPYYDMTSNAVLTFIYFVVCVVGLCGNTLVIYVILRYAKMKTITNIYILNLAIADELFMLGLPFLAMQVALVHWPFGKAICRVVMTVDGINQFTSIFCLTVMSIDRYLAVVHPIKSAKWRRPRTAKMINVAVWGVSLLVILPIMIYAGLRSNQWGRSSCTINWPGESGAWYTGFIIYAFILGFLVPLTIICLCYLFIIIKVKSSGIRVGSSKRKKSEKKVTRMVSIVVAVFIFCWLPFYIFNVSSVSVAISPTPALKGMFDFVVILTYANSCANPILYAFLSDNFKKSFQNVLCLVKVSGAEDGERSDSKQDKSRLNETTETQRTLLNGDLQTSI

In the case of `NC(=O)[C@@H](CCCCNC(=O)CNC(=O)CCC(=O)NCCc1c[nH]cn1)NC(=O)[C@@H](Cc1ccc(O)cc1)NC(=O)[C@@H](CCCCNC(=O)CNC(=O)CCC(=O)NCCc1c[nH]cn1)NC(=O)CCC(=O)Nc1ccc(CC(CN2CCN(CC(=O)O)CCN(CC(=O)O)CC2)N(CC(=O)O)CC(=O)O)cc1` (stereo partly drawn) [Al^18F(IMP467)], the “loss of ^18F” value ([1]; incubation in PBS or human serum for 6 h at 37° C.) is reported as 2%.

Al^19F(IMP466) (peptide) gave an IC50 [2] of 3.6 nM.

In the case of `CCO` [EtOH, ethanol], the “radioprotection of 800CW” value [3] is reported as “both concentration and exposure time dependent”.

For “DTPA-Gln-Ala-Lys(HSG)-D-Tyr-Lys(HSG)-NH2 [IMP272]”, the “^18F still attached to the peptide” value [4] was 42% and the “^18F unbound” value [4] was 58%.

In the case of `O=C1O[C@H]([C@@H](O)CO)C(O)=C1O` [AA, ascorbic acid], the “radioprotection against ^111In and ^213Bi induced radiobleaching of 800CW” value ([3]; 0.1% (w/v) AA) is reported as “effective radioprotection” and the “concentrations that completely preserve 800CW fluorescence” value ([3]; 20 MBq of ^68Ga, longer radiation exposure) is reported as 0.001-10 % (w/v).

With `NC(=O)[C@@H](CCCCNC(=O)CNC(=O)CCC(=O)NCCc1c[nH]cn1)NC(=O)[C@@H](CCC(=O)O)NC(=O)[C@@H](CCCCNC(=O)CNC(=O)CCC(=O)NCCc1c[nH]cn1)NC(=O)[C@@H](Cc1ccc(O)cc1)NC(=O)CN1CCN(CC(=O)O)CCN(CC(=O)O)CCN(CC(=O)O)CC1` [^68Ga(IMP288), metal not drawn] ({DOTA}-[dY][dK]([Gly-Suc-NH(2-(imidazol-4-yl)ethyl)])[dE][dK]([Gly-Suc-NH(2-(imidazol-4-yl)ethyl)])-NH2) the “tumor-to-background ratio in PET image” value ([5]; TF2 and ^68Ga(IMP288), 1 h, ROI 50% threshold, abdomen as background) was 38.2, the “tumor-to-inflamed tissue ratio in PET/CT image” value ([5]; mice with LS174T tumor and inflamed muscle, ^68Ga(IMP288) after TF2) was 5.4 and the tissue to tissue ratio at 1 h ([6]; read-out: inflamed muscle-to-background ratio in PET/CT image) was 8.9. It also gave a tissue to tissue ratio at 1 h ([6]; read-out: tumor-to-background ratio in PET/CT image) of 48.

In the case of “C-NETA-succinyl-D-Lys(HSG)-D-Tyr-D-Lys(HSG)-NH2 ({C‑NETA-Suc}-[dK](HSG)-[dY]-[dK](HSG)-NH2) [IMP467]”, the “breakdown of ^18F-labeled peptide in serum” value ([1]; human serum, 37° C., five hour incubation) is reported as “no detectable breakdown”.

In the case of `CC1(C)C(/C=C/C2=C(Oc3ccc(S(=O)(=O)O)cc3)C(=C/C=C3/N(CCCCS(=O)(=O)O)c4ccc(S(=O)(=O)[O-])cc4C3(C)C)/CCC2)=[N+](CCCCCC(=O)O)c2ccc(S(=O)(=O)O)cc21` [800CW], the “change of 800CW fluorescence on exposure to ^68Ga” value ([7]; 0.1 M NaAc pH 4.5, 30 min exposure, increasing activities) is reported as “pronounced dose-dependent decrease”, the “extent of radiobleaching by the three radionuclides, trend” value ([7]; similar activity level and exposure times) is reported as “^68Ga>^111In>^213Bi” and the “fluorescent intensity, % of the initial values” [8] is reported as 60%.

With `C[C@@H](NC(=S)Nc1ccc(CC2CN(CC(=O)O)CCN(CC(=O)O)CCN2CC(=O)O)cc1)C(=O)N[C@H](CCCCNC(=O)CNC(=O)CCC(=O)NCCc1c[nH]cn1)C(=O)N[C@H](Cc1ccc(O)cc1)C(=O)N[C@H](CCCCNC(=O)CNC(=O)CCC(=O)NCCc1c[nH]cn1)C(N)=O` (stereo partly drawn) [IMP449, NOTA-benzyl-ITC-D-Ala-D-Lys(HSG)-D-Tyr-D-Lys(HSG)-NH2] the “stability in human serum” value [9] was 76% and the “stability in human serum” value ([9]; purified, 37° C., at least one hour) was 91%.

Work on ^115In(DTPA-octreotide) (peptide) yielded an IC50 [2] of 6.3 nM.

In the case of ^69Ga(IMP466) (peptide), the IC50 [2] is reported as 13 nM.

Work on `[18FH]` [^18F, reference compound] yielded a tumor/blood ratio [10] of 6.7±2.7.

With `O=C(O)c1cc(O)ccc1O` [GA, gentisic acid] the “radioprotection of 800CW” value [3] was “both concentration and exposure time dependent”.

In the case of “Al^18F(NOTA-MPAES)-hMN-14 Fab′: Al^18F(NOTA-MPAEM) conjugated to Fab′ of humanized MN-14 anti-CEACAM5 IgG (labetuzumab)”, the “shift of activity on SE-HPLC when excess CEA was added” value (CEA) is reported as “all of the activity shifted”, the “% ID/g Blood” value [11] is reported as 0.5 ± 0.1 % ID/g and the “% ID/g Capan-1 tumor” value [11] is reported as 2.8 ± 0.3 % ID/g. The “% ID/g Kidney” value [11] was 216 ± 30.9 % ID/g, the “% ID/g Lg. Int.” value [11] was 1.1 ± 0.4 % ID/g and the “% ID/g Liver” value [11] was 17.5 ± 3.8 % ID/g. For the same compound, the “% ID/g Lung” value [11] was 4.2 ± 1.6 % ID/g, the “% ID/g Muscle” value [11] was 0.4 ± 0.1 % ID/g and the “% ID/g Scapula” value [11] was 1.6 ± 0.4 % ID/g. For the same compound, the “% ID/g Sm. Int.” value [11] was 2.2 ± 0.2 % ID/g, the “% ID/g Spleen” value [11] was 11.3 ± 1.6 % ID/g and the “% ID/g Stomach” value [11] was 0.6 ± 0.1 % ID/g. The “T/NT Blood (tumor/blood ratio)” value [11] was 5.9 ± 1.3, the “T/NT Kidney” value [11] was 0.0 ± 0.0 and the “T/NT Lg. Int.” value [11] was 2.8 ± 0.7. For the same compound, the “% ID/g Capan-1 tumor” value ([11]; listed as [Al^18F]-Fab′) was 2.8±0.3 % ID/g, the “T/NT Blood (tumor/blood ratio)” value ([11]; listed as [Al^18F]-Fab′) was 5.9±1.3 and the “T/NT Liver” value [12] was 0.2 ± 0.04. The “T/NT Lung” value [12] was 0.8 ± 0.5, the “T/NT Muscle” value [12] was 6.7 ± 1.3 and the “T/NT Scapula” value [12] was 1.8 ± 0.4. The “T/NT Sm. Int.” value [12] was 1.3 ± 0.1, the “T/NT Spleen” value [12] was 0.3 ± 0.04 and the “T/NT Stomach” value [12] was 4.7 ± 1.2.

From US20160199524A1, “RADIOSENSITIVITY OF FLUOROPHORES AND USE OF RADIOPROTECTIVE AGENTS FOR DUAL-MODALITY IMAGING” (Immunomedics, Inc., priority 2015, published 2016)
